# Results reported in patent publication US20260174875A1 (Novo Nordisk A/S, priority 2023, published 2026).
# Numbered stars: 1 amine (or outer) side, 2 acyl side, 3 side chain; on linkers, the order of the positions; unused ones are H or OH. Square brackets hold non-standard residues; d marks the D form. Side chains are listed from the residue outwards. * marks the point of attachment. C20 diacid = O=C(O)CCCCCCCCCCCCCCCCCCC(=O)*; C18 diacid = O=C(O)CCCCCCCCCCCCCCCCC(=O)*; γGlu = O=C(O)[C@H](CCC(=O)[*:2])N[*:1]; Chem. 27 = not defined here; Chem. 28 = not defined here; Chem. 29 = not defined here; AEEA = NCCOCCOCC(=O)O; Aib = CC(C)(N)C(=O)O
# T1: human GIP receptor (human, UniProt P48546 22-466)
# T1 sequence (looked up): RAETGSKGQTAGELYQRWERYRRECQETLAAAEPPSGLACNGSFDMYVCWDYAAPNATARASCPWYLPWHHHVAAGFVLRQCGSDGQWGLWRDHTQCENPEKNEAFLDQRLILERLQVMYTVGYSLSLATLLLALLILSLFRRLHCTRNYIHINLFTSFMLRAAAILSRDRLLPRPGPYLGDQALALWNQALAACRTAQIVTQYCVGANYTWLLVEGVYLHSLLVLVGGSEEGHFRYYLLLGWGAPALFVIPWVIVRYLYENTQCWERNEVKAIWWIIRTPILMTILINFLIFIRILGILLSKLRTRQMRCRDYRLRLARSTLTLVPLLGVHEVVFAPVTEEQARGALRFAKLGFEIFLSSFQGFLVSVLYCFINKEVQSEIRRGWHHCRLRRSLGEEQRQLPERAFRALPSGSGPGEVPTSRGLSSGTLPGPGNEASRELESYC
# T2: human amylin-3(a) receptor (human, UniProt P30988 25-474; O60896 24-148)
# T2 sequence (looked up) 1: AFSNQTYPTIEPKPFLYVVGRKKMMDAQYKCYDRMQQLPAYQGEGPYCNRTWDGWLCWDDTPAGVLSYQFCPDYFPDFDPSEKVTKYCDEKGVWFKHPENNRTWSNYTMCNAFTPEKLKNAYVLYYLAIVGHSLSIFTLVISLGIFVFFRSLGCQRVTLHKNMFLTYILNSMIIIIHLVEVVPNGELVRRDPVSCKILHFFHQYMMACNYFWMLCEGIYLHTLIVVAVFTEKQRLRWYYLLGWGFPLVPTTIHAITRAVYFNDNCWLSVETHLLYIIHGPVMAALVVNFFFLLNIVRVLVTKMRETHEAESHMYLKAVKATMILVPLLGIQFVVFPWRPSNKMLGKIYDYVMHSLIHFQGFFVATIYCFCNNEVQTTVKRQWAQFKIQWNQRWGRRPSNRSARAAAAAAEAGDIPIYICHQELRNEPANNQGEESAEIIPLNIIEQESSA
# T2 sequence (looked up) 2: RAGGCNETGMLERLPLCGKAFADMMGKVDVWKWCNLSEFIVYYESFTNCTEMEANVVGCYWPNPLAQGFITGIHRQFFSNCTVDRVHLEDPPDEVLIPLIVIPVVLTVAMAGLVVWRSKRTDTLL
# Experiments:
# Test in all cases: cell-based or functional assay
# human GLP-1 receptor [1] = biological target: T3, human GLP-1 receptor (human, UniProt P43220 24-463)
# human GIP receptor [2] = biological target: T1, human GIP receptor
# [3] = biological target: T2, human amylin-3(a) receptor
# human GLP-1 receptor [4] = biological target: T3, human GLP-1 receptor; remark: listed apart in the source
# human GIP receptor [5] = biological target: T1, human GIP receptor; remark: listed apart in the source
# [6] = biological target: T2, human amylin-3(a) receptor; remark: listed apart in the source
Binder,"hGLP-1R Potency, no HSA, EC50 [pM] (human GLP-1 receptor [1])","hGIPR Potency, no HSA, EC50 [pM] (human GIP receptor [2])","hAMYR3 Potency, no HSA, EC50 [pM] [3] [pM]","hGLP-1R Potency, 1% HSA, EC50 [pM] (human GLP-1 receptor [4])","hGIPR Potency, 1% HSA, EC50 [pM] (human GIP receptor [5])","hAMYR3 Potency, 1% HSA, EC50 [pM] [6] [pM]"
Compound 108 (reading uncertain) peptide: H[Aib]HGTFTSDYSILLEEQAAREFIEWLLAGGPSSGALQAPGQAPLASHLSTAQTARLSAELHK(Chem. 28)LATLPRTETGSGSP-NH2,4.57,4.01,2.48,15,11.4,60
Compound 111 (peptide) peptide: Y[Aib]EGTFTSDYSILLEEQAAREFIEWLLAGGPSSGAGQAPGQAPGASHLSTAQTQRLSAELHRLK([AEEA-AEEA-AEEA-γGlu-C18 diacid])TLPRTETGSGSP-NH2,15.9,3.66,3.33,34.8,12.2,66.4
Compound 104 (reading uncertain) peptide: H[Aib]HGTFTSDYSILLEEQAAREFIEWLLAGGPSSGAGQAPGQAPGASHLSTAQTARLSAELHK(Chem. 27)LATLPRTETGSGSP-NH2,4.16,3.57,1.49,19.1,17.3,293
Compound 102 (reading uncertain) peptide: Y[Aib]EGTFTSDYSILLEEQAAREFIEWLLAGGPSSGAGQAPGQAPGASHLSTAQTQRLSAELHQLK(Chem. 28)TLPRTETGSGSP-NH2,11,2.24,3.26,47,12.2,134
Compound 103 (reading uncertain) peptide: H[Aib]HGTFTSDYSILLEEQAAREFIEWLLAGGPSSGAGQAPGQAPGASHLSTAQTARLSAELHK(Chem. 28)LATLPRTETGSGSP-NH2,5.24,3.14,2.42,33.1,13.3,73.6
Compound 99 (not fully specified (residue 62)) peptide: Y[Aib]EGTFTSDYSILLEEQAAREFIEWLLAGGPSSGALQAPGQAPLASHLSTAQTQRLSAELHKLATLPRTETGSGSP-NH2,16.7,2.09,2.82,36.2,7.41,129
Compound 106 (reading uncertain) peptide: H[Aib]HGTFTSDYSILLEEQAAREFIEWLLAGGPSSGALQAPGQAPGASHLSTAQTARLSAELHRLK(Chem. 28)TLPRTETGSGSP-NH2,3.33,4.8,2.07,11.1,10.3,31.2
Compound 11 (reading uncertain) peptide: Y[Aib]EGTFTSDYSILLEEQAAREFIEWLLAGGPSK(Chem. 29)GEASELSTAALGRLSAELHELATLPRTETGSGSP-NH2,10.4,1.69,12.8,204,58.3,211
Compound 110 (not fully specified) peptide: Y[Aib]EGTFTSDYSILLEEQAAREFIEWLLAGGPSSGAPPPSGGGEASHLSTAQTQRLSAK([AEEA-AEEA-γGlu-C20 diacid])LHRLATLPRTETGSGSP-NH2,107,8.01,3.27,169,29.3,94
Compound 107 (reading uncertain) peptide: H[Aib]HGTFTSDYSILLEEQAAREFIEWLLAGGPSSGALQAPGQAPGASHLSTAQTARLSAELHRLATLPK(Chem. 28)TETGSGSP-NH2,4.1,3.87,3.07,13.9,8.76,93.1
Compound 109 (not fully specified; reading uncertain) peptide: Y[Aib]EGTFTSDYSILLEEQAAREFIEWLLAGGPSSGAPPPSGGGEASHLSTAQTQRLSAK(Chem. 28)LHRLATLPRTETGSGSP-NH2,68.9,7.42,3.65,94.7,17.4,32
Compound 100 (reading uncertain) peptide: H[Aib]HGTFTSDYSILLEEQAAREFIEWLLAGGPSK(Chem. 28)GAPPPSGGGEASHLSTAQTARLSAELHRLADLPRTETGSGSP-NH2,5.85,3.95,3.05,307,217,210
Compound 105 (reading uncertain) peptide: Y[Aib]EGTFTSDYSILLEEQAAREFIEWLLAGGPSSGALQAPGQAPLASHLSTAQTARLSAELHK(Chem. 28)LATLPRTETGSGSP-NH2,12.6,3.08,2.88,48.9,12.5,113
Compound 101 (reading uncertain) peptide: H[Aib]HGTFTSDYSILLEEQAAREFIEWLLAGGPSK(Chem. 28)GAPPPSGGGEASHLSTAQTARLSAELHQLATLPRTETGSGSP-NH2,3.24,1.87,3.08,179,129,95.5
